Test results: patent publication US8440629B2, “Cyclic receptor-associated protein (RAP) peptides” (Raptor Pharmaceuticals Inc., priority 2007, dated 2013)

Columns and labels:
Experiment in all cases: Solid phase binding assay
MAT CR23 = target: T1, MAT CR23 (Homo sapiens, UniProt Q9Y5Y6); conditions: highest ligand concentrations tested
T1 construct: made in house; host or cells: E. coli BL21(DE3) CodonPlus-RIPL, pET30(+)a
T1 sequence (Q9Y5Y6 487-566): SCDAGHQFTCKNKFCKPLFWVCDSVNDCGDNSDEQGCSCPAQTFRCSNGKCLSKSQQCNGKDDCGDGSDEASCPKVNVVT

MAT CR12 = target: T2, MAT CR12 (Homo sapiens, UniProt Q9Y5Y6); conditions: separate set of experiments
T2 construct: termed MAT CR12 (ST14 CR12), amino acids 452-524; made in house; host or cells: E. coli BL21(DE3) CodonPlus-RIPL, pET30(+)a
T2 sequence (Q9Y5Y6 452-524): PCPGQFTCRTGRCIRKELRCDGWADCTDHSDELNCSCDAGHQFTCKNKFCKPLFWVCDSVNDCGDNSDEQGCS

MAT CR34 = target: T3, MAT CR34 (Homo sapiens, UniProt Q9Y5Y6); conditions: separate set of experiments
T3 construct: MAT CR34 (ST14 CR34), amino acids 525-602; made in house; host or cells: E. coli BL21(DE3) CodonPlus-RIPL, pET30(+)a
T3 sequence (Q9Y5Y6 525-602): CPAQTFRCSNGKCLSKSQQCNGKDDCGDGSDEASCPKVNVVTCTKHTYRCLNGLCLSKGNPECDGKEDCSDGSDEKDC

LRP6 CR12 = target: T4, LRP6 CR12 (Homo sapiens, UniProt O75581); conditions: highest ligand concentrations tested
T4 construct: LRP6 CR12 and LRP6 CR23, amino acids 1247-1322 and 1323-1363; made in house; host or cells: E. coli BL21(DE3) CodonPlus-RIPL, pET30(+)a
T4 sequence (O75581 1247-1322): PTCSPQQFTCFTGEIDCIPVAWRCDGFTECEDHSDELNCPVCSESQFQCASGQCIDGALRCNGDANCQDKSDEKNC

LRP6 CR23 = target: T5, LRP6 CR23 (Homo sapiens, UniProt O75581); conditions: highest ligand concentrations tested
T5 construct: the two CR pairs from LRP6 within the triplet (CR1 and 2, termed CR12, CR2 and 3, termed CR23); made in house; host or cells: E. coli BL21(DE3) CodonPlus-RIPL, pET30(+)a
T5 sequence (O75581 1286-1363 limits assumed): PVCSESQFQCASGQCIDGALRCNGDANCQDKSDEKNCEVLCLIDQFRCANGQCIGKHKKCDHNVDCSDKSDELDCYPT

VLDLR CR78 = target: T6, VLDLR CR78 (Homo sapiens, UniProt P98155); conditions: highest ligand concentrations tested
T6 construct: a CR pair from VLDLR (CR78); made in house; host or cells: E. coli BL21(DE3) CodonPlus-RIPL, pET30(+)a

LRP6 CR1-3 = target: T7, LRP6 CR1-3 (Homo sapiens, UniProt O75581); conditions: highest ligand concentrations tested
T7 construct: made in house; host or cells: E. coli BL21(DE3) CodonPlus-RIPL, pET30(+)a
T7 sequence (O75581 1247-1363): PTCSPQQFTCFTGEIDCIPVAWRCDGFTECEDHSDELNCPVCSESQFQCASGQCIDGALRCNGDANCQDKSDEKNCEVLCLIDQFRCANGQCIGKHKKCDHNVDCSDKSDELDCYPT

B1: RAP d3: third domain of human RAP, amino acids 201-319 of mature RAP, bacterially expressed with hexahistidine and S-peptide tags (SEQ ID NO: 92) (protein, listed as Homo sapiens)
chain: LDRLRRVSHQGYSTEAEFEEPRVIDLWDLEQSANLTDKELEAFREELKHFEAKIEKHNHYQKQLEIAHEKLRHAESVGDGERVSRSREKHALLEGRTKELGYTVKKHLQDLSGRISRAR
modifications: hexahistidine and S-peptide tags
MAT CR23
  binding relative to that for LRP1 CR3-5: less than 5%
MAT CR12
  binding (in words): undetectable
MAT CR34
  binding (in words): undetectable
LRP6 CR12
  binding relative to that for LRP1 CR3-5: less than 5%
LRP6 CR23
  binding relative to that for LRP1 CR3-5: less than 5%
VLDLR CR78
  binding relative to that for LRP1 CR3-5: less than 5%
LRP6 CR1-3
  binding relative to that for LRP1 CR3-5: less than 5%
